Reference: patent US20240026407A1, “MODIFICATION OF SAPONINS” (GLAXOSMITHKLINE BIOLOGICALS SA, priority 2020, published 2024)

B1: 1009 (protein)
chain: MFKILRPIGFLAALLLLTGEMVMGQKSTQIISPSVFQNPPSTYGIRCWWWWLNGNVDKEVITRDLEEMKAKGFSGACLFDAGGAEQRGNAQVPAGPMFGSPQWRELYIHAMREADRLGLVMSMSIQSGWNLGGPDITAEESAKQVAFSQVQVKGNTRISQELPMPKTHHDFYRDIVVLAIPTKVFANRPPIRDFENKAATREVGASVPETRPLLTDIPGTPGEEDASKKQVLNITRHFKNGKLEWRAPAGEWTVLRFGYTATDAEVSTSSGDWQGLVIDYMSEKAFNRYWDTNVEPLLKAIGPLAGKTLRYLQTDSFEAGGMNWTDGFEKEFIKHRGYDPIPYLPVLAGKIIDSREVSNRFLSDLRKTLADLIAEKHYGVFSKRSAAYGIGIQPESAGPHAGPFDGLKNYGYSEIMMSEFWSPSPHRPRPIDRFFVKQAGSAAKIHNKKLVGAESFTTIGPHWNDVMWSDMKPSVDHEFSAGLNLVYLHTFTASPKAMGIPGQEYFAGTHFNPNVTWWNQSTAFIQYLTRCQYLLQSGTSVADVLYYYGDHSPNLGRLKEDDPAKALPGFDYDLINEDRLMELQAKDGKIFLPHGVSYRVLVLPDHKTLSLKALQKVEALVKEGASVIGSKTVTTASLVKYPASEQTVRQIADGLWGTGNEATGSRNVGKGTIAWGITAADFLRSKGVHFDMEITARETGSRYDYIHREDTGADFYFISSQNRAASKMTAAFRMTGKQPELWNPVTGETRPATSFYQKDGKTYIPLEFDPYGSVFVVFRDDIAKDQNGSAASNFVHLETATTLHGSWDVAFDPAWGGPAAVVFNELVSWPDRNEEGIKYYSGKAVYSKKFDASQDVAESKQVFLDLGEVKDIGIAKVTLNGKDLGILWAPPLRVPVGGVLKEKDNVLQIEVVNTWRNRLIGDRTKPVEKRFTKTNVKVLETWQLTPSGLLGPVRLLTGSEQ
modifications: Dyadobacter fermentans
B2: 1068 (protein, listed as Pedobacter heparinus)
chain: MINQIFKFSFFALNLLAWYSFTAKSQDLKVFDKATSWITCDKAQDQSNSWIAFRKVVQLDEKPVKALLDISVDSKYWLYINEKLVVFEGGLKRGPNPDDTYYDEADLTEYLKAGTNTIAVLLWYFGKNGFSHHSSGRAGMFFQLDMDKQGKICSDRSWKCSVVPAYLNVYSGDQPNYRLAESNVIYDARLALGDWTSASYNDKTWRNPFVVGPAGCMPWNKLVKRPIPQWKDYGIVNFNLNFPFNATGDTIKVKLPYNAQFTPYLKVEATAGKTIEMFTDNYSGGSENNVRAEYITKTGIQEYESFGWMNGHVMMFVIPKGAKVLSLGYRETGYHTTFAGSFNCNDAFYNKLWEKSSRTLYVNMRDSYMDCPDRERAQWWGDEVTEMTQSFYALDPDANLLAKKGIDELTGWQRSDGVLFSPIPAGNFDLELPVQMLTSVGYYGFWTYYYYTGDLETIRAAYPSIRKYLSLWEMDKNGLVISRTGGWNWGDWGKNVDIDLMSNAWYYLACKGYLEMSKTLNHAEEIKWAENQMSVMKKSFDTRFWTGKAYRSPDYKGQTDDRSNALAVLAGLTAPAKYPLLKDVFLTEEHSSPYMEKYVLEALFKMGYADIALERLKKRYTAMVDSELTTLWEGWKIGVNGYGGGSYNHAWSGGGLILLSRFVAGIEPASPGYETVKIAPQMGSLINCSATVSSVAGLIAVKNTFTNEKEFNQLIESPSPLKIYFPFEVYRIKKIRVNNKKLSEALMLKFKNEGKLELSKGKYKLTVNIN
B3: 1021 (protein, listed as Paenibacillus sp.)
chain: MLQPYAPAIKNYYSAIGIDTPKPIFVWKLSSPLRNQKQTHYRITVAENAESLEEENNLLWDSGKVASDEQLGVMYKGSPLESTSRYCWRVAIWDSSGQSLWSEVQYFITGYLNSEHWSAKWIGDGSDAPFYARYEFDLNKKVKQAFALVSGLGQFKFYMNGRQVGDHEMDPGWTNYHKSVQYVGFDITDHLQSGKNAVGLHVGNGFFAGASGGRHFYTMDKGYEPYGDQLVAIGEWHIEFEDGSRIILRTGEEGWKVHESATTLANVYGSENFDARLYPDGYHVPGFDDSGWKPAQLLKPPAGNLVQQNQPPVKVKQVYDTLSVAEPLPGVYVFDLGQNMAGMFEIYASGPAGSKVIIKPGELMREDGTIATPWDIVTYSEFILAGTGEVEVWKPDFSYYGARWVQIEGCTRDEADTGRPMIHDVKGHFITSASQDTGTLSTDDVRIDKLADIITKAIESNLQSVHTDCPTIEKLGWLEASALMGPSIVYVKQAEELFLKIVRDMMEAQTEEGLIPDIAPEYSLFPDGFRDSIAWGIALLMVPDLLLERYNNFTAIEVAYPAMKRYMDYLKSKEIHDGLIGHGLGDWGIQPQTGGDYIENVETAFYYEGYRLMAKFAGILGFTDELEDYSAEAERIKLNYNKQLLHSLPENSPRYAYCKLGGQFDPANQVVQAIPLAFNLVPEEQLHNVEHALLQAVASRQFHSGEIGLRYLFLALSRLNRNDIVLDMMMQPEHPSYIRFVERGETSLPEFWTDEARSRNHDMMGHILEWLYKELLGISSASGAYKEILIAPFRSGRVKRVKGVHHSIRGEIGVEFSHSAEEIILNVQIPANTTATLQIPLLHGESQLYERGTRVLYEPFNQGAQIYARLKIGSGSYSYVNRV
B4: 999 (protein, listed as Prevotella ruminicola)
chain: MRKFLTIICVACCYASATFAQAWPQPKPEAKPGTRWWWLGSAVNQRDLQWNLQEYARAGIGAVEITPIYGVKGNDANNIAYLSPQWMQALQSVQDIARPLGIEVDMNCGTGWPFGGPHISLDQAACRAIIKDTIINGKHQYEVEIGHTKQKVKRAAPGGEGWVVDHFDRNAVAHYLDRFEQAFATSGVPYPHTFFNDSYEVYKADWTPTLFDEFQKRRGYDLRTKLPELLGKVDDGNQTLADYRETLSDMLLENFTQQWVAWAHKHGVKVRNQAHGSPANLLDLYAAVDIPEIEGFGLSEFGIKGLRTDPGKTRKNDSDVSMLKYASSAAHVMGKPFTSSETFTWLTEHFRTSLSQMKPDLDLMFTCGVNHVYFHGSCYTPQNAAWPGWKFYASVDMSPTNSIWRDAPFLMKYIERSQSFLQLGEPDNDFLVYLPVRDMWHQRDNNNTLLMQFDIHSMAKKAPQFIRSILTIDSLGYDCDYISDRQLAKVRMQDGMLVTEGGTRYKALIIPSGTTIDASLQAQINRLNAYVIRGEQAADMAKFAKAEQMKTTYGLRAIRRHTADGWHYFIVNLTPKDITGDVTLAVPFESATWFNPMNGDIQPAEVHNGQLHIALKSGESRILQTSNQPSTNITTTASGTEEITLQGPWVLSFTDESPRVEGTFKLNKLQTWETLSDSAAVTMGTGVYTTSIKLSAQQAKQHWQIDLGDVRESARVYINSQFVGCAWAVPFILDCGNTLHKGKNEIRIEVTNLPANRIAELDRKGVQWRKFNEINVVDINYKNTTYADWKPVPSGLNTTVKLVR
B5: 1072 (protein, listed as Kribbella flavida)
chain: MAEPVAPDGWTSGGPLAVAKLTAEYAEEPHGTDEVRPRLAWIATAPGYGATQSAYQVLVASQPELLSPEQADVWDSGQVGSDAVQVAYDGPALAARTRYHWAVRLWDGQGRAGRWSRPSWFETALLDEGFGAARWIGASTEAAPLLRRPFELTGPVRRARLYASGLAYAVLRVNGQQVGDAVLDPGFTNYDRTVLYVTHDVTELLQAGENVLGAELGRGFFGMTTPNVWRWHQAPWTGDPRLLARLVIDHEDGTTTELVSDGSWRVTSGPTVSDSLYAGERYDARLAQPGWDAPGFDDAAWSPAVELTAPQGTLRAQAHEPIRVVEEVAPVAISSPRAGVQVIDFGRTTAGWAKLRVEAPAGSRFTLVYGETLTADGQVEATNRHVDGDRFQQDEYVAAGHEIEQWEPRFSYKGFRYLQVTGDAEAEVVLKVVHSDVRAASRFDSDVEVYSWLEQAMRRTVLNNLHGIPTDTPIFEKNGWTGDAQVGAPTMASLVDLARFFTKWLDDLRDSQLPDGRLPVIVPSAGWGYAELAPATEWSTVYPFLLREMHRWYGDTRVLADHWDAVLRYLDWELERVEDGLSISVLGDWLPPGYPDGPPPEDSRLTATAYLHRAVTAVVEIGELIGETSELERLRKAAAELADGLNREFLDREAGLYRTAADPDYRQTSNAVPLAFGLVPEDQVPRVVANLVADVQARDFHLNTGCLGVGVLLPVLTQYGHADVAAKLAQQRTYPSWGYWLEEGADTLWEMWEADTRSRNHYFHGTVVQWLLESVAGLRNVGNGWQRIVVRPDARTGSTSAALRTDTVRGRVAASWRLVGRVLQLEVQVPVGCVAEVHVPSEAAADVTAVPSPYAGEPTRSDGYTVYTVPSGQWHFTSRTA
B6: 1025 (protein, listed as Bacteroides xylanisolvens)
chain: MKKDYMKYQQNSKREEKSKFITNQLTNMAHISIRSYLYLLGTTLFSCAPQELKTPFELKCENIPVPVGVDTQTPRLSWKLPLLEEDSINRVEIWLSTDSTQLSGRQSGYWNKSIIGAPIRVSYDGQPLDSYTTYYWKIGYQTSSKQKTTFSPISSFTTGCLSPDNWKGKWITDKHDITYRPAPYYRKSFQLDKTIEQALLTIASAGLHELSVNGQRAGNHFLDPMYTHFDKRILSVTHDVTSLLSLGENVIGVQLGNGWYNHQSTAVWFFDKASWRNRPKFTAQLHLRYTDGTTEYLGTDSTWQTTDSPVIFNSIYTAEHYDAQKELAGWDSPGFNATGWYHAQETESPTETIKSQVMHPIRETARYTATQCKKINDSCYVYHFPKNIAGVTELKVKGKKGTKLRLKHGELLDKNGMVNMANIDYHYRPTDDSDPFQTDIVILSGKQDRFMPKFNYKGFQFVEVSSSAPIQLSDENLIAVEMHSDIPAIGYWSSSSDLLNKIWKATNSSYLANLFGYPTDCPQREKNGWTGDAHITIETGLYNFDGISIYEKWMNDFCDEQKDNGILPCIIPTSVWGYDWANGVDWTSAVAIIPWEIYRFYGDTTLLRRMYGPIKKYVSYIESISTNHLTDWGLGDWVPVRSKSNITLTSSIYYYTDVCILAKAARLFGYAEDASYYNTLAQKIKEAINTSFLNKETGIYAEGTQTELAMPLYWGIVPEEDKKKVAARLHELVEKDDYHLDVGLLGSKALLSAMSDNGYAETAYKVASQDTYPSWGVLDQTRCYNST

Assay: Experiment 6-1: screening of rhamnosidases for derhamnosylation of saponins in treated bark extract (2%), QS-17 2310 to QS-18 2164 (PAR %)
Assay type: biochemical, Quillaja saponaria
Details: TBE 2%, pH 7.5, 30 degC, 18 h; TIC peak area ratio percent, LCMS/MS; negative controls 3.061, 2.429

Molecule | Peak57 (PAR %) [%]
B1 | 3.762
B2 | 3.156
B3 | 3.148
B4 | 2.714
B5 | 3.245
B6 | 2.933

Assay: Experiment 6-1: screening of rhamnosidases for derhamnosylation of saponins in treated bark extract (2%), desglucosyl-QS-17 2134 to QS-21 1988 (PAR %)
Assay type: biochemical, Quillaja saponaria
Details: TBE 2%, pH 7.5, 30 degC, 18 h; TIC peak area ratio percent, LCMS/MS; negative controls 2.719, 2.158

Molecule | Peak75 (PAR %) [%]
B1 | 2.379
B2 | 2.370
B3 | 2.296
B4 | 2.571
B5 | 2.462
B6 | 2.330

Assay: Experiment 6-1: screening of rhamnosidases for derhamnosylation of saponins in treated bark extract (2%), QS-17 2296 to QS-18 2150 (PAR %)
Assay type: biochemical, Quillaja saponaria
Details: TBE 2%, pH 7.5, 30 degC, 18 h; TIC peak area ratio percent of rhamnosylated starting saponin to derhamnosylated product, LCMS/MS; negative controls 4.876, 5.225

Molecule | QS-17 (PAR %) [%]
B1 | 5.408
B2 | 5.521
B3 | 5.476
B4 | 5.614
B5 | 5.457
B6 | 5.495

Assay: Experiment 6-1: specificity of rhamnosidases towards other rhamnose residues (C3 saccharide rhamnose, C28 saccharide rhamnose)
Assay type: biochemical, Quillaja saponaria
Details: TBE 2%, pH 7.5, 30 degC, 18 h; LCMS/MS; negative controls 0.18, 0.17

Molecule | ratio PP/QS-21
B1 | 0.16
B2 | 0.17
B3 | 0.16
B4 | 0.16
B5 | 0.17
B6 | 0.18
